B1: ZBTB22 (parent)
chain: FSSSSQEAFAASAVGSGERRGGGP
B2: PCDHGA10 (parent)
chain: FHELQMQVTASDSGDPPLSSNVSL

Variants of: B1
Test: protein stability index of a GFP-peptide fusion (GPS, HEK-293T) (PSI 1-6); higher = more stable
Conditions: c terminus: a fixed tail appended
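Note: lentivirally expressed fusions sorted by FACS into six bins by GFP to DsRed ratio, PSI derived from sequencing read proportions per bin multiplied by bin number.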

Going from FSSSMQEAFAASAVGSGERRGGGP [S5M] to FSSSSQEAFAASAVYSGERRGGGP [G15Y], the protein stability index rises from 2.4 to 2.58.

Compared with FSSSSQEHFAASAVGSGERRGGGP [A8H], FSSSSQEAFAASAVGSGEYRGGGP [R19Y] is lower in protein stability index: 3.86 for the first, 3.32 for the second.

Compared with FSSSSQEAFAASAVNSGERRGGGP [G15N], FSSSSQEAFAASKVGSGERRGGGP [A13K] is lower in protein stability index: 3.43 for the first, 3.36 for the second.

First: FDSSSQEAFAASAVGSGERRGGGP [S2D]
Second: FSSSSQHAFAASAVGSGERRGGGP [E7H]
The protein stability index of the first is higher: 5.17 for the first, 2.31 for the second.

Compared with FSSSSQEAFAASYVGSGERRGGGP [A13Y], FSSSSQEAFAASAVGSGERRGGSP [G23S] is lower in protein stability index: 3.26 for the first, 3.25 for the second.

Compared with FSSSSQEAFAASAVGSGERRGGCP [G23C], FSSSSQEANAASAVGSGERRGGGP [F9N] is higher in protein stability index: 3.46 for the first, 4.71 for the second.

Variant RSSSSQEAFAASAVGSGERRGGGP [F1R] has a protein stability index of 5.67.

Variants of: B2
Test: as above
Conditions: c terminus: a fixed tail appended

First: AHELQMQVTASDSGDPPLSSNVSL [F1A]
Second: CHELQMQVTASDSGDPPLSSNVSL [F1C]
The protein stability index of the first is higher: 4.58 for the first, 3.83 for the second.

First: DHELQMQVTASDSGDPPLSSNVSL [F1D]
Second: EHELQMQVTASDSGDPPLSSNVSL [F1E]
The protein stability index of the first is lower: 4.91 for the first, 5.2 for the second.

Going from GHELQMQVTASDSGDPPLSSNVSL [F1G] to HHELQMQVTASDSGDPPLSSNVSL [F1H], the protein stability index falls from 4.74 to 4.61.

Compared with IHELQMQVTASDSGDPPLSSNVSL [F1I], KHELQMQVTASDSGDPPLSSNVSL [F1K] is higher in protein stability index: 3.74 for the first, 4.51 for the second.

Compared with LHELQMQVTASDSGDPPLSSNVSL [F1L], MHELQMQVTASDSGDPPLSSNVSL [F1M] is lower in protein stability index: 4.5 for the first, 4.06 for the second.

First: NHELQMQVTASDSGDPPLSSNVSL [F1N]
Second: PHELQMQVTASDSGDPPLSSNVSL [F1P]
The protein stability index of the first is lower: 4.61 for the first, 4.8 for the second.

Going from QHELQMQVTASDSGDPPLSSNVSL [F1Q] to RHELQMQVTASDSGDPPLSSNVSL [F1R], the protein stability index rises from 4.62 to 4.66.

First: SHELQMQVTASDSGDPPLSSNVSL [F1S]
Second: THELQMQVTASDSGDPPLSSNVSL [F1T]
The protein stability index of the first is higher: 5.08 for the first, 4.57 for the second.

Compared with VHELQMQVTASDSGDPPLSSNVSL [F1V], WHELQMQVTASDSGDPPLSSNVSL [F1W] is lower in protein stability index: 4.11 for the first, 3.81 for the second.

Going from YHELQMQVTASDSGDPPLSSNVSL [F1Y] to FAELQMQVTASDSGDPPLSSNVSL [H2A], the protein stability index rises from 2.78 to 3.07.

First: FCELQMQVTASDSGDPPLSSNVSL [H2C]
Second: FDELQMQVTASDSGDPPLSSNVSL [H2D]
The protein stability index of the first is lower: 2.11 for the first, 4.49 for the second.

First: FEELQMQVTASDSGDPPLSSNVSL [H2E]
Second: FFELQMQVTASDSGDPPLSSNVSL [H2F]
The protein stability index of the first is higher: 4.28 for the first, 2.21 for the second.

Compared with FGELQMQVTASDSGDPPLSSNVSL [H2G], FIELQMQVTASDSGDPPLSSNVSL [H2I] is lower in protein stability index: 3.94 for the first, 1.88 for the second.

Compared with FKELQMQVTASDSGDPPLSSNVSL [H2K], FLELQMQVTASDSGDPPLSSNVSL [H2L] is lower in protein stability index: 3.84 for the first, 2.51 for the second.

Going from FMELQMQVTASDSGDPPLSSNVSL [H2M] to FNELQMQVTASDSGDPPLSSNVSL [H2N], the protein stability index rises from 2.81 to 4.47.

Compared with FPELQMQVTASDSGDPPLSSNVSL [H2P], FQELQMQVTASDSGDPPLSSNVSL [H2Q] is lower in protein stability index: 3.99 for the first, 3.43 for the second.

First: FRELQMQVTASDSGDPPLSSNVSL [H2R]
Second: FSELQMQVTASDSGDPPLSSNVSL [H2S]
The protein stability index of the first is higher: 3.85 for the first, 3.83 for the second.

Going from FTELQMQVTASDSGDPPLSSNVSL [H2T] to FVELQMQVTASDSGDPPLSSNVSL [H2V], the protein stability index falls from 2.81 to 1.92.

Going from FWELQMQVTASDSGDPPLSSNVSL [H2W] to FYELQMQVTASDSGDPPLSSNVSL [H2Y], the protein stability index rises from 1.78 to 2.31.

Going from FHALQMQVTASDSGDPPLSSNVSL [E3A] to FHCLQMQVTASDSGDPPLSSNVSL [E3C], the protein stability index rises from 1.91 to 2.53.

Compared with FHDLQMQVTASDSGDPPLSSNVSL [E3D], FHFLQMQVTASDSGDPPLSSNVSL [E3F] is higher in protein stability index: 2.07 for the first, 2.39 for the second.

Compared with FHGLQMQVTASDSGDPPLSSNVSL [E3G], FHHLQMQVTASDSGDPPLSSNVSL [E3H] is lower in protein stability index: 2.69 for the first, 1.75 for the second.

Compared with FHILQMQVTASDSGDPPLSSNVSL [E3I], FHKLQMQVTASDSGDPPLSSNVSL [E3K] is lower in protein stability index: 2.38 for the first, 2.21 for the second.

Going from FHLLQMQVTASDSGDPPLSSNVSL [E3L] to FHMLQMQVTASDSGDPPLSSNVSL [E3M], the protein stability index rises from 1.92 to 2.31.

Going from FHNLQMQVTASDSGDPPLSSNVSL [E3N] to FHPLQMQVTASDSGDPPLSSNVSL [E3P], the protein stability index rises from 1.7 to 1.97.

FHQLQMQVTASDSGDPPLSSNVSL [E3Q] and FHRLQMQVTASDSGDPPLSSNVSL [E3R] are the same in protein stability index: 1.85 for the first, 1.85 for the second.

First: FHSLQMQVTASDSGDPPLSSNVSL [E3S]
Second: FHTLQMQVTASDSGDPPLSSNVSL [E3T]
The protein stability index of the first is lower: 1.59 for the first, 1.82 for the second.

First: FHVLQMQVTASDSGDPPLSSNVSL [E3V]
Second: FHWLQMQVTASDSGDPPLSSNVSL [E3W]
The protein stability index of the first is lower: 1.6 for the first, 2.54 for the second.

First: FHYLQMQVTASDSGDPPLSSNVSL [E3Y]
Second: FHEAQMQVTASDSGDPPLSSNVSL [L4A]
The protein stability index of the first is lower: 2.26 for the first, 2.76 for the second.

Going from FHECQMQVTASDSGDPPLSSNVSL [L4C] to FHEDQMQVTASDSGDPPLSSNVSL [L4D], the protein stability index rises from 2.73 to 3.84.

First: FHEEQMQVTASDSGDPPLSSNVSL [L4E]
Second: FHEFQMQVTASDSGDPPLSSNVSL [L4F]
The protein stability index of the first is higher: 4.19 for the first, 1.39 for the second.

First: FHEGQMQVTASDSGDPPLSSNVSL [L4G]
Second: FHEHQMQVTASDSGDPPLSSNVSL [L4H]
The protein stability index of the first is lower: 2.67 for the first, 2.87 for the second.

Going from FHEIQMQVTASDSGDPPLSSNVSL [L4I] to FHEKQMQVTASDSGDPPLSSNVSL [L4K], the protein stability index rises from 2.28 to 2.73.

Going from FHEMQMQVTASDSGDPPLSSNVSL [L4M] to FHENQMQVTASDSGDPPLSSNVSL [L4N], the protein stability index rises from 2.24 to 3.6.

First: FHEPQMQVTASDSGDPPLSSNVSL [L4P]
Second: FHEQQMQVTASDSGDPPLSSNVSL [L4Q]
The protein stability index of the first is lower: 2.57 for the first, 3.36 for the second.

First: FHERQMQVTASDSGDPPLSSNVSL [L4R]
Second: FHESQMQVTASDSGDPPLSSNVSL [L4S]
The protein stability index of the first is lower: 2.77 for the first, 3.46 for the second.

Going from FHETQMQVTASDSGDPPLSSNVSL [L4T] to FHEVQMQVTASDSGDPPLSSNVSL [L4V], the protein stability index falls from 2.97 to 2.84.

First: FHEWQMQVTASDSGDPPLSSNVSL [L4W]
Second: FHEYQMQVTASDSGDPPLSSNVSL [L4Y]
The protein stability index of the first is higher: 2.2 for the first, 2.04 for the second.

Going from FHELAMQVTASDSGDPPLSSNVSL [Q5A] to FHELCMQVTASDSGDPPLSSNVSL [Q5C], the protein stability index falls from 2.26 to 1.88.

Compared with FHELDMQVTASDSGDPPLSSNVSL [Q5D], FHELEMQVTASDSGDPPLSSNVSL [Q5E] is lower in protein stability index: 3.32 for the first, 3.23 for the second.

With FHELFMQVTASDSGDPPLSSNVSL [Q5F] the protein stability index was 3.27.
